Biological target: GFP11(×7)-actin (actin fused to a seven-copy array of GFP11)
Test: split reporter

fold brightness of the GFP channel versus GFP11(×1)-actin [fold]	Substance
> 5	FluoSTEP-AKAR (R-G1–10–FluoSTEP-AKAR; mRuby2-FHA1-PKAsub-GFP1–10)
3.6	FluoSTEP-ICUE (mRuby2-Epac1(149 to 881)-GFP1–10)
